In article PMC5716572, “Regulation of potassium dependent ATPase (kdp) operon of Deinococcus radiodurans”:
Residue numbers refer to the chain shown, from its start.

Legend:
[1] = biological target: T1, RR (KdpE-like response regulator) (Deinococcus radiodurans R1 ATCC BAA-816) (UniProt Q9RZP1); test: EMSA; details: 20 mM HEPES pH 7.6, 10 mM (NH4)2SO4, 30 mM KCl, 1 mM EDTA, 1 mM DTT, 0.2% Tween20, 37°C 1 h; 10% native PAGE in 0.5X TBE
T1 sequence: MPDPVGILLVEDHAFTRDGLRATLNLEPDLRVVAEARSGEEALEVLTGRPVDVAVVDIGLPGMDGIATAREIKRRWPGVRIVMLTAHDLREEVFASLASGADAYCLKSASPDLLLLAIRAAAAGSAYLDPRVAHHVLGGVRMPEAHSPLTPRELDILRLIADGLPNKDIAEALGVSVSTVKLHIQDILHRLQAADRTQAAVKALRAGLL

[2] = biological target: T2, RR (KdpE-like response regulator) (Deinococcus radiodurans R1 ATCC BAA-816, UniProt Q9RZP1 1-209); test: EMSA; details: apparent; Hill coefficient 1.36 ± 0.17; unphosphorylated; 20 mM HEPES pH 7.6, 10 mM (NH4)2SO4, 30 mM KCl, 1 mM EDTA, 1 mM DTT, 0.2% Tween20, 37°C 1 h; 10% native PAGE in 0.5X TBE
T2 sequence: T1 sequence with R131Q

[3] = biological target: T2, RR (KdpE-like response regulator); test: EMSA; 12% native PAGE; 20 mM HEPES pH 7.6, 10 mM (NH4)2SO4, 30 mM KCl, 1 mM EDTA, 1 mM DTT, 0.2% Tween20, 37°C 1 h; 10% native PAGE in 0.5X TBE; details: protein: recombinant; tags: C-terminal His tag (pET29b NdeI/XhoI, Ni-NTA; position implied by vector); chain copies: 2; label: DIG-ddUTP; blunt

In the case of “GGCCTTGATGAGGTTCTTGTCCTTGGCGTACTTGTTGAGCACGCGGGTGTACGCCGTCTTGAAGCCGGTCAGCGGGGTGCCGCCGTCGCGGGTGCGGATCATGTTGGCGTAGGTCAGGATGTTGTCGCTGGCGTAGGTGTTGGCGTGGATAAA (double strand) [nsDNA (DR_0906 fragment)]”, the binding [1] is reported as “no binding”.

PkdpB-200 was tested, and the Kd [2] was 3.62 µM.

B1: PkdpB-38 (dsDNA)
DNA 1: AACGGCGCTATGAGTCTTTCTTCTTTCCGGTGGCGGCC
DNA 2: GGCCGCCACCGGAAAGAAGAAAGACTCATAGCGCCGTT
B1: binds [3].
